The RNAGym collection of RNA variant scans (doi:10.1073/pnas.2313332121)

B1: TPR t1 (parent)
chain: GACCAAUCUGCCCUCAGAGCUCGAGAACAUCUUCGGAUGCAGAGGAGGCAGGCUUCGGUGGCGCGAUAGCGCCAACGUCCUCAACCUCCAAUGCAUCCCACCACAUGAUGAUGCCUGAAGAGCCUUGGUUUUUUG

Variants of: B1
Experiment: polymerase ribozyme fitness, log enrichment relative to wild type (log ratio); higher = more active; in vitro selection for triplet polymerase activity
In short: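 Frozen incubation at −7 °C formed the core of a single, triplicate in vitro selection round applied to PCR-built, transcribed mutant libraries of each subunit of a heterodimeric triplet polymerase ribozyme. Extended constructs were gel-excised, captured with streptavidin beads and amplified by RT-PCR, and input and output libraries were Illumina-sequenced with a filter of ≥10 input reads and ≥1 read per output. Fitness is the logarithm of genotype enrichment relative to wild-type enrichment, with inverse-variance-weighted replicate averaging, and the logarithm is base 2.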

Going from GCCCAAUCUGCCGUCAGAGCUCGAGAACAUCUUCGGAUGCAGAGGAGGCAGGCUUCGGUGGCGCGAUAGCGCCAACGUCCUCAACCUCCAAUUCAUCCCACCACAUGAUGAUGCCUGAAUAGCCUUGGUUUUUUG [A2C C13G G93U G120U] to GCCCAAUCUGCCCUCAGAGCUCGAGAAUAUCUUCGGAUGCAGAGGAGGCAGGCUUCGGUGGCGCGAUAGCACCAACGACCUCAACCUCCGAUGCAUCCCACCACAUGAUGAUGCCUGAAGAGCCUUGGUUUUUUG [A2C C28U G71A U78A A90G], the “polymerase ribozyme fitness (log ratio)” value falls from -2.23 to -5.83.

Compared with GCCCAAUCUGCCCUCAGAGCUCGAGAACAUCUUCGGAUGUAGAGGAGGCAGGCUUCGGUGGCGCGAUAGCGCCAACGUCCUCAACCUCCAAUGCAUCCCACCACAUGAUGAUGCCUGAAGAGCCUUGGUUUUUUG [A2C C40U], GCCCAAUCUGCCCUCAGAGCUCGAGAACAUCUUCGGAUGCAGAGGAGGAAGGCUUCGGUGGCGCGAUAGCGCCAACGUCCUCAACCAACAAUGCAUCCCACCACAUGAUGAUGCCUGAAGAGCCUUGGUUUUUUG [A2C C49A U87A C88A] is lower in “polymerase ribozyme fitness (log ratio)” value: -2.06 for the first, -3.11 for the second.

First: GCCCAAUCUGCCCUCAGAGCUCGAGAACAUCUUCGGAUGCAGAGGAGGCAGGCUUGGGUGGCGCGAUAGCGCCAACGUCCUCAACCUCCAAUGCAUCCCACCACAUGAUGAUGCCUGAAGAGCCUUGGUUUUUUG [A2C C56G]
Second: GCCCAAUCUGCCCUCAGAGCUCGAGAACAUCUUCGGAUGCAGAGGAGGCAGGCUUCGGUGGCGCGAUAGAGCCAACGUCCUCAACCUCCAAUGCAUCCCACCACAUGAUGAUGCCCGAAGAGCCUCGGUUUUAUG [A2C C70A U116C U126C U133A]
The “polymerase ribozyme fitness (log ratio)” value of the first is higher: -1.9 for the first, -5.29 for the second.

Compared with GCCCAAUCUGCCCUCAGAGCUCGAGAACAUCUUCGGAUGCAGAGGAGGCAGGCUUCGGUGGCGCGAUAGCGACAACGUCCUCAACCUCCAAUGCAUCCCACCACAUGAUGAUGCGUGAAGAGCCUUGGUUUUUUG [A2C C72A C115G], GCCCAAUCUGCCCUCAGAGCUCGAGAACAUCUUCGGAUGCAGAGGAGGCAGGCUUCGGUGGCGCGAUAGCGCUAACGUCCUCAACCUCCAAUGCAUCCCACCACAUGAUGAUGCCUGAAGAGCCUUGGUUUUUUG [A2C C73U] is higher in “polymerase ribozyme fitness (log ratio)” value: -3.29 for the first, -1.65 for the second.

Compared with GCCCAAUCUGCCCUCAGAGCUCGAGAACAUCUUCGGAUGCAGAGGAGGCAGGCUUCGGUGGCGCGAUAGCGCUAAGGUCCUCAACCUCCAAUGCAUCCCACCACAUGAUGAGGCCUGAAGAGCCUUGGUUUUUUG [A2C C73U C76G U112G], GCCCAAUCUGCCCUCAGAGCUCGAGAACAUCUUCGGAUGCAGAGGAGGCAGGCUUCGGUGGCGCGAUAGCGCCAACGUCCUAAACCUCCAAUGCAUCCCACCACAUGAUGAUGCCUGAAGAGCCUUGGUUUUUUG [A2C C82A] is lower in “polymerase ribozyme fitness (log ratio)” value: -1.38 for the first, -2.04 for the second.

Going from GCCCAAUCUGCCCUCAGAGCUCGAGAACAUCUUCGGAUGCAGAGGAGGCAGGCUUCGGUGGCGCGAUAGCGCCAACGUCCUCAACCUCCAAUGCAUCCCAACACAAGAUGAUGCUUGAGGAGCCUUGGUUUUUUG [A2C C101A U106A C115U A119G] to GCCCAAUCUGCCCUCAGAGCUCGAGAACAUCUUCGGAUGCAAAGGGGGCAGGCUUCGGUGGCGCGAUAUCGCCAACGUCCUCAACCUCCAAUGCAUCCCACCACAUGAUGAUGCGUGAAGAGCCUUGGUUUUUUG [A2C G42A A46G G69U C115G], the “polymerase ribozyme fitness (log ratio)” value falls from 0.154 to -4.92.

Compared with GCCCAAUCUGCCCUCAGAGCUCGAGAACAUCUUCGGAUGCAGAGGAGGCAGGCUUCCGUGGCGCGAUAGCACCAACGUCCUCAACCUCCAAGGCAUCCCACCACAUGAUGAUGCCUGAAAAGCCUUGGUUUUUUG [A2C G57C G71A U92G G120A], GCCCAAUCUGCCCUCAGAGCUCGAGAACAUCUUCGGAUGCAGAGGAGGCAGGCUUCGGUGACGCGAUAGCGCCAACGUCCUCAACCUCCAAUGCAUCCCACCACAUGAUGAUGCCUGAAGAGCCUUGGUUUUUUG [A2C G61A] is higher in “polymerase ribozyme fitness (log ratio)” value: -6.04 for the first, -1.72 for the second.

Going from GCCCAAUCUGCCCUCAGAGCUCGAGAACAUCUUCGGAUGCAGAGGAGGCAGGCUUCGGUGACGCGAUAGCGCCAACGUCCUGAACCUCCAAUGCAUCCCACCACAUGAUGAUGCCUGAAGAGCCUUGGUUUUUUG [A2C G61A C82G] to GCCCAAUCUGCCCUCAGAGCUCGAGAACAUCUUCGGAUGCAGAGGAGGCAGGCUUCGGUGACGCGAUAGCGCCAACGUCCUCAACCUCCAAUGUAUCCCACCACAUGAUGAUGCCUGAAGAGCCUUGGUUUUUUG [A2C G61A C94U], the “polymerase ribozyme fitness (log ratio)” value rises from -2.65 to -0.931.

Compared with GCCCAAUCUGCCCUCAGAGCUCGAGAACAUCUUCGGAUGCAGAGGAGGCAGGCUUCGGUGGCACGAUAGCGCCAACGUCCUCAACCUCCAAUGCAUCCCACCACAUGAUGAUGCCUGAAGAGCCUUGGUUUUUUG [A2C G63A], GCCCAAUCUGCCCUCAGAGCUCGAGAACAUCUUCGGAUGCAGAGGAGGCAGGCUUCGGUGGCCCGAUAGCGCCAACGUCCUCAACCUCCAAUGCAUCCCACCACAUGAUGAUGCCUGAAGAGCCUUGGUAUUUUG [A2C G63C U130A] is lower in “polymerase ribozyme fitness (log ratio)” value: -2.37 for the first, -2.69 for the second.

First: GCCCAAUCUGCCCUCAGAGCUCGAGAACAUCUUCGGAUGCAGAGGAGGCAGGCUUCGGUGGCUCGAUAGCGCCAACGUCCUCAACCUCCAAUGCAUCCCACCACAUGAUGAUGCCUGAAGAGCUUUGGUUUUUUG [A2C G63U C124U]
Second: GCCCAAUCUGCCCUCAGAGCUCGAGAACAUCUUCGGAUGCAGAGGAGGCAGGCUUCGGUGGCUCGAUAGCGCCAACGUCCUCAACCUCCAAUGCAUCCCACCACAUGAUGAUGCCUGAAGAGCCUUGGAUUUUUG [A2C G63U U129A]
The “polymerase ribozyme fitness (log ratio)” value of the first is higher: -1.65 for the first, -2.77 for the second.

With GCCCAAUCUGCCCUCAGAGCUCGAGAACAUCUUCGGAUGCAGAGGAGGCAGGCUUCGGUGGCGCGAUAACGCCAACGUCCUCAACCUCCAAUGCAUCCCACCACAUGAUGAUGACUGAAGAGCCUUGGUUUUUUG [A2C G69A C114A] the “polymerase ribozyme fitness (log ratio)” value was -4.75.
